Values of other authors as cited in article PMC5430804, “Structural and biochemical insights of CypA and AIF interaction” (Scientific Reports, 2017).
pKd: −log10 of the molar value.

Target: AIF(Δ1-121) Δ1-121 (Homo sapiens) (UniProt O95831)
Sequence (O95831 1-121, stated change not applied): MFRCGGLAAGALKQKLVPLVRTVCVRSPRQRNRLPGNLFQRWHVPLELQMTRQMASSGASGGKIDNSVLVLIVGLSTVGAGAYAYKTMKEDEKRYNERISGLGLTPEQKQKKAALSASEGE

CypA, sequence (P62937 2-165): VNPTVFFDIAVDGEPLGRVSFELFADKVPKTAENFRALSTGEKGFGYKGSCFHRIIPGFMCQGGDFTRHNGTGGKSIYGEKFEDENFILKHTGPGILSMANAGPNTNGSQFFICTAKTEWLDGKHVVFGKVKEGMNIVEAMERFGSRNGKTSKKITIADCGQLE

pKd: 6.05
Substance: CypA (from UniProt P62937)
